Laboratory results as given in the supplement of paper PMC10724198.

The sequences below were run on Saccharomyces cerevisiae (assay: protein stability index of tFT-peptide fusion in deletion strain of DAS1 (PSI (0-1 scale)); higher = more stable (slower turnover)). Settings: not given.
Procedure: (§1)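 MPS profiling in S. cerevisiae of two library types built from selected 12-aa C-degron peptides (IN1, IN2, LN1, LN3, VN2, R1-R5, W1-W3, Atg1 and Rpa12 C-termini): saturation mutagenesis libraries and C-terminal +1 capping libraries (13 aa). Each peptide is fused to the C-terminus of a sfGFP-mCherry timer, after a GGGS linker. Cells are FACS-sorted into 8 mCherry/sfGFP bins and sequenced. PSI runs from 0 (unstable) to 1 (stable), measured once in wild type and in the das1Δ or doa10Δ background.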
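Throughout, for protein stability index of tFT-peptide fusion in deletion strain of DAS1: PSI is a weighted mean of each variant's read distribution over the sorted stability bins, computed only for variants having over 10 reads in total.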
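Throughout, for protein stability index of tFT-peptide fusion in wild type: PSI derived as read-weighted mean over the 8 sorting bins, only variants exceeding 10 total reads kept, mCherry placed adjacent to the peptide and sfGFP distal.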

| Sequence | protein stability index |
| --- | --- |
| LKILRQKGNHQN | 0.676 |
| LKILRQKHNHQN | 0.67 |
| LKILRQKMNCQN | 0.673 |
| LKILRQKMNEQN | 0.663 |
| LKILRQKMNHAN | 0.657 |
| LKILRQKMNHIN | 0.671 |
| LKILRQKMNHQE | 0.675 |
| LKILRQKMNHQM | 0.656 |
| LKILRQKMNHQNR | 0.673 |
| LKILRQKMNHQNS | 0.671 |
| LKILRQKMNHQV | 0.671 |
| LKILRQKMNHQW | 0.679 |
| LKILRQKMNTQN | 0.675 |
| LKILRQKMRHQN | 0.669 |
| LKILRQKRNHQN | 0.669 |
| LKILRQKTNHQN | 0.69 |
| LKILRQRMNHQN | 0.662 |
| LKIPRQKMNHQN | 0.679 |
| LKISRQKMNHQN | 0.677 |
| LKRLRQKMNHQN | 0.666 |
| LKTLRQKMNHQN | 0.672 |
| LKWLRQKMNHQN | 0.697 |
| LLILRQKMNHQN | 0.673 |
| LLIQPLPVQFLN | 0.624 |

| Sequence | protein stability index |
| --- | --- |
| LSVYLSCVACIN | 0.145 |
| LVEYLSCVACIN | 0.373 |
| LVVDLSCVACIN | 0.367 |
| LVVLLSCVACIN | 0.0371 |
| LVVYLICVACIN | 0.0584 |
| LVVYLSCFACIN | 0.0433 |
| LVVYLSCVACIF | 0.029 |
| LVVYLSCVACII | 0.0431 |
| LVVYLSCVACINQ | 0.207 |
| LVVYLSCVACIW | 0.0367 |
| LVVYLSCVACQN | 0.097 |
| LVVYLSCVAEIN | 0.0269 |
| LVVYLSCVAMIN | 0.032 |
| LVVYLSCVASIN | 0.0412 |
| LVVYLSCVAWIN | 0.0302 |
| LVVYLSCVTCIN | 0.0605 |
| LVVYLSLVACIN | 0.0617 |
| LVVYLSPVACIN | 0.278 |
| LVVYLSVVACIN | 0.0878 |
| LVVYYSCVACIN | 0.0266 |
| PDERNHLIKLLN | 0.566 |
| PDKLNHLIKLLN | 0.609 |
| PDKRLHLIKLLN | 0.629 |
| PDKRNHLDKLLN | 0.578 |

| Sequence | protein stability index |
| --- | --- |
| PDKRNHLIELLN | 0.702 |
| PDKRNHLIFLLN | 0.687 |
| PDKRNHLIHLLN | 0.586 |
| PDKRNHLIKDLN | 0.557 |
| PDKRNHLIKLLNA | 0.665 |
| PDKRNHLIKLLNE | 0.662 |
| PDKRNHLIKLLNG | 0.662 |
| PDKRNHLIKLLNT | 0.663 |
| PDKRNHLIKLLNY | 0.657 |
| PDKRNHLIKLMN | 0.605 |
| PDKRNHLIKMLN | 0.598 |
| PDKRNHLIKWLN | 0.694 |
| PDKRNHLPKLLN | 0.612 |
| PDKRNHLSKLLN | 0.659 |
| PDKRNHLVKLLN | 0.585 |
| PDKRNHLYKLLN | 0.598 |
| PDKRNPLIKLLN | 0.581 |
| PDKRVHLIKLLN | 0.61 |
| PEKRNHLIKLLN | 0.608 |
| PKILRQKMNHQN | 0.678 |
| PKLAASFWRVVG | 0.691 |
| PLLAASFWRVVG | 0.678 |
| PMLAASFWRVVG | 0.702 |
| PSKAASFWRVVG | 0.686 |

| Sequence | protein stability index |
| --- | --- |
| PSKRNHLIKLLN | 0.61 |
| PSLAAFFWRVVG | 0.691 |
| PSLAAMFWRVVG | 0.691 |
| PSLAARFWRVVG | 0.679 |
| PSLAASFDRVVG | 0.684 |
| PSLAASFGRVVG | 0.672 |
| PSLAASFKRVVG | 0.677 |
| PSLAASFWNVVG | 0.69 |
| PSLAASFWRFVG | 0.707 |
| PSLAASFWRNVG | 0.7 |
| PSLAASFWRVFG | 0.699 |
| PSLAASFWRVKG | 0.664 |
| PSLAASFWRVMG | 0.664 |
| PSLAASFWRVVE | 0.696 |
| PSLAASFWRVVGN | 0.689 |
| PSLAASFWRVVGV | 0.685 |
| PSLAASFWRVVL | 0.724 |
| PSLAASFWRVVM | 0.743 |
| PSLAASFWRVVQ | 0.711 |
| PSLAASFWRVVT | 0.693 |
| PSLAASFWRYVG | 0.657 |
| PSLAQSFWRVVG | 0.699 |
| PSLIASFWRVVG | 0.672 |
| PSLQASFWRVVG | 0.633 |

| Sequence | protein stability index |
| --- | --- |
| PSLYASFWRVVG | 0.674 |
| RGIQPLPVQFLN | 0.581 |
| RLDQPLPVQFLN | 0.808 |
| RLGQPLPVQFLN | 0.611 |
| RLIQPIPVQFLN | 0.597 |
| RLIQPKPVQFLN | 0.586 |
| RLIQPLFVQFLN | 0.621 |
| RLIQPLPDQFLN | 0.631 |
| RLIQPLPVCFLN | 0.582 |
| RLIQPLPVGFLN | 0.587 |
| RLIQPLPVQFKN | 0.648 |
| RLIQPLPVQFLE | 0.743 |
| RLIQPLPVQFLNC | 0.635 |
| RLIQPLPVQFLNI | 0.644 |
| RLIQPLPVQFLNL | 0.656 |
| RLIQPLPVQFLNS | 0.658 |
| RLIQPLPVQFLNT | 0.639 |
| RLIQPLPVQFLNV | 0.621 |
| RLIQPLPVQFLT | 0.59 |
| RLIQPLPVQFQN | 0.548 |
| RLIQPLPVQNLN | 0.645 |

Each sequence was assayed on Saccharomyces cerevisiae (assay: protein stability index of tFT-peptide fusion in wild type (PSI (0-1 scale)); higher = more stable (slower turnover)). Settings: genetic background: wild type.
Procedure: as §1

| Sequence | protein stability index |
| --- | --- |
| LKILRQKGNHQN | 0.655 |
| LKILRQKHNHQN | 0.322 |
| LKILRQKMNCQN | 0.207 |
| LKILRQKMNEQN | 0.253 |
| LKILRQKMNHAN | 0.196 |
| LKILRQKMNHIN | 0.183 |
| LKILRQKMNHQE | 0.507 |
| LKILRQKMNHQM | 0.244 |
| LKILRQKMNHQNR | 0.677 |
| LKILRQKMNHQNS | 0.521 |
| LKILRQKMNHQV | 0.189 |
| LKILRQKMNHQW | 0.255 |
| LKILRQKMNTQN | 0.212 |
| LKILRQKMRHQN | 0.301 |
| LKILRQKRNHQN | 0.299 |
| LKILRQKTNHQN | 0.403 |
| LKILRQRMNHQN | 0.251 |
| LKIPRQKMNHQN | 0.484 |
| LKISRQKMNHQN | 0.323 |
| LKRLRQKMNHQN | 0.202 |
| LKTLRQKMNHQN | 0.205 |
| LKWLRQKMNHQN | 0.146 |
| LLILRQKMNHQN | 0.155 |
| LLIQPLPVQFLN | 0.0661 |

| Sequence | protein stability index |
| --- | --- |
| LSVYLSCVACIN | 0.0226 |
| LVEYLSCVACIN | 0.247 |
| LVVDLSCVACIN | 0.137 |
| LVVLLSCVACIN | 0.0235 |
| LVVYLICVACIN | 0.0186 |
| LVVYLSCFACIN | 0.0181 |
| LVVYLSCVACIF | 0.0136 |
| LVVYLSCVACII | 0.0175 |
| LVVYLSCVACINQ | 0.187 |
| LVVYLSCVACIW | 0.0175 |
| LVVYLSCVACQN | 0.0434 |
| LVVYLSCVAEIN | 0.0146 |
| LVVYLSCVAMIN | 0.0127 |
| LVVYLSCVASIN | 0.0148 |
| LVVYLSCVAWIN | 0.0134 |
| LVVYLSCVTCIN | 0.0223 |
| LVVYLSLVACIN | 0.0258 |
| LVVYLSPVACIN | 0.18 |
| LVVYLSVVACIN | 0.0255 |
| LVVYYSCVACIN | 0.0106 |
| PDERNHLIKLLN | 0.179 |
| PDKLNHLIKLLN | 0.133 |
| PDKRLHLIKLLN | 0.126 |
| PDKRNHLDKLLN | 0.574 |

| Sequence | protein stability index |
| --- | --- |
| PDKRNHLIELLN | 0.272 |
| PDKRNHLIFLLN | 0.116 |
| PDKRNHLIHLLN | 0.0992 |
| PDKRNHLIKDLN | 0.628 |
| PDKRNHLIKLLNA | 0.13 |
| PDKRNHLIKLLNE | 0.564 |
| PDKRNHLIKLLNG | 0.17 |
| PDKRNHLIKLLNT | 0.144 |
| PDKRNHLIKLLNY | 0.16 |
| PDKRNHLIKLMN | 0.119 |
| PDKRNHLIKMLN | 0.0821 |
| PDKRNHLIKWLN | 0.182 |
| PDKRNHLPKLLN | 0.148 |
| PDKRNHLSKLLN | 0.136 |
| PDKRNHLVKLLN | 0.133 |
| PDKRNHLYKLLN | 0.196 |
| PDKRNPLIKLLN | 0.42 |
| PDKRVHLIKLLN | 0.128 |
| PEKRNHLIKLLN | 0.101 |
| PKILRQKMNHQN | 0.194 |
| PKLAASFWRVVG | 0.172 |
| PLLAASFWRVVG | 0.157 |
| PMLAASFWRVVG | 0.162 |
| PSKAASFWRVVG | 0.139 |

| Sequence | protein stability index |
| --- | --- |
| PSKRNHLIKLLN | 0.145 |
| PSLAAFFWRVVG | 0.13 |
| PSLAAMFWRVVG | 0.137 |
| PSLAARFWRVVG | 0.14 |
| PSLAASFDRVVG | 0.644 |
| PSLAASFGRVVG | 0.661 |
| PSLAASFKRVVG | 0.683 |
| PSLAASFWNVVG | 0.331 |
| PSLAASFWRFVG | 0.137 |
| PSLAASFWRNVG | 0.17 |
| PSLAASFWRVFG | 0.367 |
| PSLAASFWRVKG | 0.549 |
| PSLAASFWRVMG | 0.144 |
| PSLAASFWRVVE | 0.684 |
| PSLAASFWRVVGN | 0.651 |
| PSLAASFWRVVGV | 0.674 |
| PSLAASFWRVVL | 0.617 |
| PSLAASFWRVVM | 0.282 |
| PSLAASFWRVVQ | 0.252 |
| PSLAASFWRVVT | 0.147 |
| PSLAASFWRYVG | 0.134 |
| PSLAQSFWRVVG | 0.188 |
| PSLIASFWRVVG | 0.12 |
| PSLQASFWRVVG | 0.111 |

| Sequence | protein stability index |
| --- | --- |
| PSLYASFWRVVG | 0.0956 |
| RGIQPLPVQFLN | 0.112 |
| RLDQPLPVQFLN | 0.0831 |
| RLGQPLPVQFLN | 0.0875 |
| RLIQPIPVQFLN | 0.0323 |
| RLIQPKPVQFLN | 0.0691 |
| RLIQPLFVQFLN | 0.0762 |
| RLIQPLPDQFLN | 0.61 |
| RLIQPLPVCFLN | 0.0773 |
| RLIQPLPVGFLN | 0.322 |
| RLIQPLPVQFKN | 0.618 |
| RLIQPLPVQFLE | 0.633 |
| RLIQPLPVQFLNC | 0.486 |
| RLIQPLPVQFLNI | 0.627 |
| RLIQPLPVQFLNL | 0.636 |
| RLIQPLPVQFLNS | 0.385 |
| RLIQPLPVQFLNT | 0.614 |
| RLIQPLPVQFLNV | 0.599 |
| RLIQPLPVQFLT | 0.223 |
| RLIQPLPVQFQN | 0.366 |
| RLIQPLPVQNLN | 0.447 |
